A protein production outcome set (Wang et al. 2014)

Assay: label from the status in PepcDB records

Sequence	protein production
MEYILYISRFLYRIRWWLLIGTAIITFAVYYFGKRMIGKTYNVEATLYTGAASGYNLEGGNNKVDWATTQNAMDNLMNIIKAESTLKRVSIRLYARSLIKGNPKEDNEFIKASNYNRIYEHLKNSPNGKEILSLIDKNSEDKTVANFFNYLRPTQANYLYGVFYYNLPYYSYNDLRAIRVARKGASDLIEISYTASDPGIAYNTIDILTKEFVNEYSAIRYGETDKVIEYFKSELQRIGKELRLKEDSLTQYNVEKRVINYYDETKEIAAINKEFELREQNVLIAYNSAKAMLNELEKQMGSNAKHVINNLQFLDKLNEAASLTGKISEMETISSDHQNQEASLQEYKNRLNQTRKELSELSNKYVENKYTKEGIAKENIIEQWLEVTMQYEKAKSDLQIIQQSRIDLNEKYRQFAPVGSTIKRQERNITFIEQNYLSVLKSYNDALMRRKNLEMTSAALKVLNAPAYPISAMPTPLKKMVMAACAGTFLFILGFFLILELLDRTLRDSIRTRRLIGLPMLGAFPKDSILEYHNHVEESKSIATKQLSNSILRFCQQKKEGLPYIINFISTEGGEGKSYVIEALKKYWNSIGLKTKVITWKSDFRIDSREYNLAKSITDLYTSEEEDILIVEYPNLREASISLELLQEANLNILVARADRGWKETDKLLSEKLSQQVGKTPLYVYLTHASRNVVEDYTGMLPPYTLWRKIVYRLSQLALTESIFTFTKRKKQPATSGDEDDE	failed
MEYSRDSAEMMMETKRNVYSLEDNKIKRHKSSDLSFSSKERKDKLAERISALQQLVSPYGKTDTASVLLEGMQYIQFLQEQVKVLSAPYLQATPSTTEEEVEEYSLRSKGLCLVPLEYTSEVAQTNGADIWAPVKTPTSSHAFNLSSSNSPFQ	failed
MEYTPFSLILDVGWISGLMIIGNIMRRKIPFFQTLLIPSSITAGIIGMILGPKVLGLIGWSDHLSTYTTVLIAIVFASMPYSMKFDRGVRTGMKTMWAYSTAMFVGQWGLFILLGLFLFQPVWGTDEWFGMMLPVGFVGGFGTAAAVGTALESSGAEAAMSLGFTSATVGTFAAIVGGIIFTTWGIKKGKTAAMPAQLPWDLRSGYIDKLSDRPSIGKASTNPSAIEPLALHTGIILLTVAVAYSINQWLGSMFPTVQIPLFAMSFVVGIVGMGIMRLLKKPEYLDRDTVNSVSGAATDYLIAFGIASIAPAAIADYWVPLVVLFVLGTIYCCFFFFWVAPRFFGEKWLERAIFGWGWATAAVATGIALLKIVDPKLKSGALNEYGVAYIGFAPFEIGMTIIAPIAVLAGFTMGLGWASLIVAIVIFGLAWGLKWLPERGHVRGEGKPQ	failed
MFADISAQHWAFAIYVIGAIAICLTMIGLAALLGGRAQGRTKNKPFESGVDSVGTARLRFSAKFYLVAMFFVIFDVEALYLFAWSVSVRESGWVGFIEATIFIGLLLIGLVYLWRIGALEWSPRKPQLNNKNTD	failed
MFAERRMNVQKKLKIMAARDRNRFRPLFEGDEEVDMLYLNCNVASRPSLSCDGLVCIPIPGWINVLNPSTGEFLRFSSGRDPRLINDFECVDSKFDVFPGFWTMGFGRDNVNGSYKIVRMLFDRHFENRYCQILDVNIGEWRKQRQPPYFVGYREKSACVNGSIYWSQALIRCKLLAFDLYSEEFRDVPTPPRSEICERSCQIVNLEDRLVLAVTYTTSLHWNVKIWSMDAHDGTRSITYSIRLFSKDMNSSIMNHFQLWFWTRPLAVSKRGNLFFHDNEKRL	failed
MFAHIGEDYVVNSSELLLIMSYDIFMSSEDNLRILESLKNEDRLVVINDDLKKSIIILEIDGRLYAIVSPVSSTTIAKRFLNFNYYVDNYLDESLEHHHHHH	not failed
MFARFLAQLDFVLTCDRLKTALRTTRLHDGSRLENSAEHSWHLALLALTLAEYAPTGTDVGRVVRLLLMHDLVEIGAGDLSFDAPAEAQAAQQEAEARAAAELFGLLPTDQAAEFLGLWQEFEARQTTEVRFARALDALQPMLLTWGPGAQGCAASHPELTHLRVLGLKEKHLREFPELWAAAQGVMAQAQARGVLQPLEHHHHHH	failed
MFCVSLILQTLKQPNVHRQVLAIALPMVLSNITVPLLGLVDAAVIGHLEHAWYLGGVALGSTMISVTFWLLGFLRMSTTGLTAQAHGAQNSQQLARVLLQGSVIALGLAALFLLFHRPVAELIFHFSDASSEVKTYAEAYFYIRAWSAPAALLNFVLLGWLLGTQNARAPMWMVIITNLTNIVLDLLLVLGLGLKVEGAAIASVIADYAGLLFGLLCVGRYWRQHQLPAPFSFIPSLTKELSRLVALNRDIFLRSLCLQAVFSFMTFQGAALGDDIVAANAVLMSFLMMISYGMDGFAYAMEAMVGKAIGAKDDRQLRTAMISSTFWATMICLLLSLIFLGFGSDLIQMITNIPSVQATAEHYLPWLVAMPLIAVWCFLLDGVFIGATKGKEMRNSMAVSAVAFFAIYGFMTHYGNHALWLAMLSFMALRGFTLGATFYTQWRAGTFLPARFSI	failed
MFDLSSIVDNEQTSDALEDVVMGLIINAGQARSLAYNALKQAKAGDFAQADELMAQSRSALNDAHLVQTQLIEADQGEGKTKVTLVLVHAQDHLMNAMLARELITELIELHQKIQ	failed
MFEQIIAILFPVMSLVLIGYLIGLWLKPDFRPINRINMEAFVPALVFSSLVNMPLDTQQTPLLLAALVAVLLPGILMLLICRLGRWSFKTWAPLHMFRNSGNLAIPLFTYAFGETALPSAVLLFVVSMCLHISLGVAMLSKGSVLKTVLSAPVFLASSLALLLNLSGVSIWSPLYNATALLGQAAVPVMLLSLGSQMINLRLAGLKVGLVSTAQSLLTGACAFTVIYFFIPLPPLQLQMMVLFTMLPPAVMNYLFAERYHIEPTQVAAMVLFGNFFSLLSLPILLFIALSL	failed
MFESLGFEETTAKEISVLLGLSLGVLFGLLAERTRFCFRRAVVGEDARQAAGVWFTALAVAILGTQASVASGLIGFADHRLLSSDLPVLAVVLGGLMFGAGMVLTRGCISRLTVLGGTGNLRALTVLLVFAVVAHAMLKGVLAPLRTSLGAVTVDLGETVSLAALPGGAALWTALLALASLLIAARSGNRALPLLGAALIGLLVPLGWVGTGYVLFDEFDPITMESLSFTAPAADTLFYTIASTSIAPGFGTGLVGGVLLGALAAALLFGSFRWQSFDSPRQTGRYLAGATLMGMGGVLAGGCTLGAGLAGIPTLSLAALLALTAIALGARLTDAALNAASSGSAGYPATPGQQPAE	failed
MFFSEARARSRTWEASPSEHRKWVEVFKACDEDHKGYLSREDFKTAVVMLFGYKPSKIEVDSVMSSINPNTSGILLEGFLNIVRKKKEAQRYRNEVRHIFTAFDTYYRGFLTLEDFKKAFRQVAPKLPERTVLEVFREVDRDSDGHVSFRDFEYALNYGQKEA	failed
MFGYRSNVPKVRLTTDRLVVRLVHDRDAWRLADYYAENRHFLKPWEPVRDESHCYPSGWQARLGMINEFHKQGSAFYFGLFDPDEKEIIGVANFSNVVRGSFHACYLGYSIGQKWQGKGLMFEALSAAIRYMQRTQHIHRIMANYMPHNKRSGDLLARLGFEKEGYAKDYLLIDGQWRDHVLTALTTPDWTPGR	failed
MFIAIHSQSFFSPEMDMVASRDRRPPPATIRREPFQLIRIKAAGLAAEGVNAMTSVFTRSAVACAIALAAAAISQAGAQGLKKYESGTKEFWTNPPPDWFLGDETEAQKGLAPPAGPPTGSSDAELAAMIKKIKLPPGFKIEVYASGVLSARQMAWGDNGTLFVGSFGVGSVYAITDKDGKKQVKTILKGLKMPTGLAFRDGALYVVDIDKLIRYDNAEANLDNLGSGKVVYDDMPSYVAHGWKYLAADKDGWFYVPFGPPFNIGIPPTSVSQIRRVDPKTGNAEIVALGVRNSVGGDVDPRSGKYWFTENARDWISDDMPSDKLNMISKLGEHFGYPYCHQGDMPDPKFAMGHKCSEFTPPVLNLGAHVAPLGMKFYTGDQFPAEYKNNIFIAEHGSWNRHKYQGGLIKRVIADPDGKNAKQEDFATGWIEGDQGYLGRPADIVLAKDGSMLVADDWAGAIYRISYSK	failed
MFIERMTNLAQGLVVAAVHAGSIAEEMEIECGDQILAIDGQEIGDIIDFQYLTAEDEFTLLLEKAGGELWELEIERSYGEELGLEVQAVSSHGLKLCRNNCIFCFVAQMPPGMRASLYDKDDDYRLSLTQGSFITLSNLDEDEFERILKFHFSPLYISVHAWDAEARVRLMKNPRAGDLSSQLKRLAGAGIQIHSQIVLVPGYNDGEVLEQTVRELGNLHPSVQSIAVVPVGLTKHRANLPDLRPFTPEEAWSILAKGEMWQKEYRRKTGRSLVYFSDEFYASAGRDYPSIEIYDDFAQLENGVGMASKFRQEFDYALQSLPPAIPQRKVHLITGVSAAPFFEDLLKKLTPIEGLTVQRHTIINSFFGPTVTVAGLLTAQDIAGQIGNIKGEIFLIPRVMLKADEEVFLDDRSVEWLAEELQGIPLVVENQGRAFLEAVTGLDLEGEDCE	failed
MFISDKSRPTDFYKDDHHNSSTTSTTRDMMIDVLTTTNESVDLQSHHHHNHHNHHLHQSQPQQQILLGESSGEDHEVKAPKKRAETWVQDETRSLIMFRRGMDGLFNTSKSNKHLWEQISSKMREKGFDRSPTMCTDKWRNLLKEFKKAKHHDRGNGSAKMSYYKEIEDILRERSKKVTPPQYNKSPNTPPTSAKVDSFMQFTDKGFDDTSISFGSVEANGRPALNLERRLDHDGHPLAITTAVDAVAANGVTPWNWRETPGNGDDSHGQPFGGRVITVKFGDYTRRIGVDGSAEAIKEVIRSAFGLRTRRAFWLEDEDQIIRCLDRDMPLGNYLLRLDDVCKTHLAGLAIRVCHYDESNQLPVHSEEKIFYTEEDYREFLARQGWSSLQVDGFRNIENMDDLQPGAVYRGVR	failed
MFKAPFSFDGRIRRIEYFLSGIIGGIVFGVAYSLGLATLFLGAAAGSAGGSLFGILIGIVAGIASIWFSLAQGVKRLHDLNKSGWLILICCVPIIGWVFSLYMLFADGTVGPNQYGEDPKNRMPYQPQPTSVNVTVNVSRETPAEAPAEEEKTEKAE	failed
MFKPQGLYDYICQQWQEEILPSLCDYIKIPNKSPHFDAKWEEHGYMEQAVNHIANWCKSHAPKGMTLEIVRLKNRTPLLFMEIPGQIDDTVLLYGHLDKQPEMSGWSDDLHPWKPVLKNGLLYGRGGADDGYSAYASLTAIRALEQQGLPYPRCILIIEACEESGSYDLPFYIELLKERIGKPSLVICLDSGAGNYEQLWMTTSLRGNLVGKLTVELINEGVHSGSASGIVADSFRVARQLISRIEDENTGEIKLPQLYCDIPDERIKQAKQCAEILGEQVYSEFPWIDSAKPVIQDKQQLILNRTWRPALTVTGADGFPAIADAGNVMRPVTSLKLSMRLPPLVDPEAASVAMEKALTQNPPYNAKVDFKIQNGGSKGWNAPLLSDWLAKAASEASMTYYDKPAAYMGEGGTIPFMSMLGEQFPKAQFMITGVLGPHSNAHGPNEFLHLDMVKKLTSCVSYVLYSFSQKK	not failed
MFKRCFSPLTLVNQLALIVMLSTAIGVAGMAVSGWLVQGVQGSAHAINKAGSLRMQSYRLLAAVPLDAKDQKLLDEMEQTAFSPELTRAAERDGQQKQLKALQDYWHNELSPRLQHAQNAHAVAEDITRFVAGLDRLVTSFDHTTELRIERVVLVHRVMAIFMALLLVFTIIWLRVRLLQPWKQLLSMARAVSQRDFTQRANISGRNEMAALGSALNNMSEELAESYAVLEQRVQEKTAGLEHKNQILSFLWQANRRLHSQAPLCERLSPVLNGLQNLTQLHDIELRVYDLEDEDNHQEFTCQSDISCDDKGCHLCPRSALPMINGGTTLKWRLTDSHTQYGILLATLPYGRHLSHDQQQLVDTLVEQLTATLALDRHQERQQRLIVMEERATIARELHDSIAQSLSCMKMQVSCLQMQGDALPESSRELLSQIRNELNCSWAQLRELLTTFRLQLTEPGLRPALEASCQEFSARFGFTVKLDYQLPPRLVPSHQAIHLLQIAREAPSNALKHSHADDVVVTVTQCGKQVKLKVQDNGCGVPENAERSNHYGMIIMRDRAQSLRGDCQVRRRETGGTEVTVTFIPETNFTETQGDTHE	failed
